The values that follow come from a protein production outcome set (Wang et al. 2014).

The data set is described as follows: label from the status in PepcDB records.
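Also: failed if final PepcDB status was selected cloned or expressed and not failed if soluble or beyond.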

For “MLTTQITQTYHLTTPIISAGMAFVATPKLAAAVSNAGGMGTFSAFMSPPEELRALIRQTRSLSDRPFGIDFITAAANDDHIAICMAERVPVVIFFWSFPPLDWVTQLQNAGVKVWMQVGSLAEATQAKAQGFDAIIAQGQEGGGHNRSEASIFSLLPAICREVAPIPVIAAGGIIDGRGLVAALALGAEAVWCGTRFLASEEAYAHPEYKARVVTATVGDTTRTTLFGPEMPGQLMRVLRNLAVNQWGDRVADATKHGPTQPAIGSTILGGQALPMPKFSAILPTPDTSGDFEEMCLTAGESSGNITAIKSARDILWEMENEALDLLTYRLQAITKEQNLMAAG”, the protein production entry is “failed”. In the case of “MLTVDQLALLFVLLLGAVVSVPVGDRFGLPAPVLMTLLGIGLAVADFVPNVDIPPDLILPALLPPLLYAAVRRTSWRQFTANKRPIFLLAVALVFVTTAVVALVAGAIVPGLPIAAAVALGALVAPPDPVAATAVAGQLGLPRRLVSILEGEGLFNDVTAIVLYHVAIAAAVSGTFSLPNAVLDLVLSAVVAVAVGLALGWAANRLMDLLDDVTLQIGLTLLVPYASYVLAEELHGSGVLAVLTTALFLAEYATDADDVMTRLAGHTFWNVVDTLVTGVAFGLIGLELHNALRTASGRWGEMLGWAAAIVAVVVLVRLAYLLPATWLTKRLHAKRDYDEEIPTSWRETVVMWWAGMRGVASAALALAIPLKMDDGSPFPDRDEIVFIAFGVIMGTLVLQGLTLPWLVKRLGVRADTGSEKAFEKALAIRAAKAAKRRLREIEDVEELPEELSEQLLRRAFDIGARISPDLGDEERREAHEQRVRRMKRVRRIQGEMMSAARHEVLAARSEPGADPEIVDRVLRHLDVRSLR”, the protein production result is reported as “failed”. As for “MLTYFHPDQSLHHPRTYFSRGRMRMPQEVPERAARLVAAAFAMGFPVREPDDFGIAPIAAVHDTHYLRFLETVHREWKAMPEDWGDEAMSNIFVREPNALRGVLAQAARHLADGSCPVGEHTWRAAYWSAQSALAAAAAVRDGAPAAYALCRPPGHHARVDAAGGFCYLNNAAIAAQALRARHARVAVLDTDMHHGQGIQEIFYARRDVLYVSIHGDPTNFYPAVAGFDDERGAGEGLGYNVNLPMPHGSSEAAFFERVDDALRELRRFAPDALVLSLGFDVYRDDPQSQVAVTTDGFGRLGHLIGALRLPTVIVQEGGYHIESLEANARSFFGGFGALRG”, the protein production result is on record as “not failed”. Consider “MLVCAAFSGGAGASDAGALLEAARRGDTAQVASLLERKVEVDAPSADGSTPLLLATANDHLAVARQLIEAGADVNRQNSRLDSPYLLAGAEGRLEILRLTLLHGADLKSTNRYGGTALIPACERGHVEVVKTLLQAGVDPNHVNKLGWTGLLEAILLSDGGPRHQEIVRLLIDAGADVNLADADGVSPLAHARQRGQGGIERLLLAAGAQ”, for which the protein production result is reported as “failed”. With “MLVESFNPFNNLLLSSIVAAIPIILFLLCLTVFKMKGVYAAITTLIVTIIVAMAFFKLPGSIAGGATLEGFYQGIIPIGFIVIMAVWLYKIATKSGQFAIVQDSIASVSRDQRVQLLLIGFVFNGFLEGAAGFGVPIAICAVLLTQLGFKPLQAAMYCLVSNAAAGAYGAVGIPIAIVDTLNLPGGVTTSQVALIGNLTLGFISFVVPFLLMYIMDGFKGVKETFPATLVVAVTFTVLQVLIAAFAGPELADIIPGLVAMIALALFSKKWQPKNIFRINKDEKADAVPKHSIGHITYAWSPFIILTIVVMIWSLPAFKGLFEKGGALSALVVNFNVPGTMNAVTNKPNELTFNFFAQTGTAILITAIITIIIAKNMSFKTAGHLLGLTVKELWISVLTICFILAVSKITTYGGLSNAMGQGISKTGAAFPLLSPLLGWIGVFMTGSVVNNNSLFAPIQASVAEQIGTKGSLLVAANVAGGVTAKIVSPQSIAIATAAVNKVGKESELMKMAMRFSIGLLILVCIWTFICSLFIS” the entry was “failed”; with “MLVMKCSKCSAEAIYYAKYNGLYLCRDHFNEMIEGRVKKEIRKQVEFHGDDVTISVALSGGKDSSVTLFLLHKILGNRKNMKIKAFTVDEGIDGYRPSGLESAKRLCTSLGIDHETISFYDSYGLTLDSIVKTNPVKIPCAYCGPLRRKLINEMADKQDADYVALGLNLDDYSQSILMNVAKGDFDRFIRMSPQTDRKVGLVRRIAPLRTILEKEVVLYAVTNDIPFDSSWCPYYSRAQRNVFREVVNKLSEENPSTKFAILKFFDRVRENITTGHEEVKLKRCKICGAPTERDVCTACSSLQEVNEMMAEH”, “failed”. “MLVPLPVREIMRTPVKTISPSAPVIEAAQRLRDEDIGSLVVEDDGSCVGIITESDIVAVTAAEGDTRALSVGDVMAETLVTVAPDADMQAAVDRLQTNNIKKLPVVEDGSLVGIVTTTDLSDYIPHLSRAVRMSNDQSQQKRFTRPDTLYENEDWTFESYGTADGIDVGDHVEFSKTISKADVEAFAEASGDTNRLHLDATFADGTRFGRRIVHGTLVSGIISAALARLPGLTIYLSQELSYQGPVDIDEEVTARCEVVERIQDNRFRLATAVDDSEGNCVIEGDAVVISDPIPDTA”: the protein production entry was “failed”. With “MLVRNICKFTQVMGRFRVVVNPRDYCHLAPLKRSRYHQRSEFGCRPLCSNAAGYEVSWAAPPASGSSGGMFWAFSAAFTLNLFGGADEKEETPEEKLIKTIKRSILCIQREQYDKAEQMLHLALRMAQDIQSKDGITYVFDLMANLAMEREQFKKAEKIFTDVMKRLFAEGHTEESPKILHISSKIAHMSQLQGDLEKSFQGFTWTLQQLAKLLEKMPDDKDILELYGLTKNWFGQLLMKQGKYLEAKNLFKEAFDTLINVYGAVNDASVTILNNISVAYVNLEKYAEARETLLEAMELTKELKDATQEGILQANLGLVYLREGLMSQAENACRLAWKLGKQHQNPDAVEQAEYCLNEIKTTLNGEKRQ” the entry was “failed”; with “MLVVAVVFPVLAFIFLGGVVFYTRKQNKPKNKRAASVEVDENNEDGVKVNNSELKKLTKIKKIKGSKIYLKNGAIRVNLGISSPDFELLTDEEQTSFEDCLMMSALSLNFPVQFHTTLKKIEIKEPAELVEKTMNSSDSLISDNLRDYCSQLYSSYKKLEHEKGIFVRKSFCTVGAYLPDRDEKKVLNELQSRIDNIAGGLSRARMKINLLNSESTAQILADLFNRGKNIKIETLEKDGAFDLYSEGVGQVVEVQEG”, “failed”; with “MLYFEDLRPGQLFLSAEHTLSEQEIIAFARQFDPQPFHTDPEAARQTFFNGLAASGWHTSSLSMRLVAESELGRAANGLIGMQIDKMRWPQPSRPGDTLQVEVEVLDKRRSSSQPGFGVVKVSWTTRNQRGETAMQLECAIWLQCRSKAEAAAPELAGAK”, “failed”. As to “MLYHLVMLEPEGEGAMDRIMEAMAILDGLAPELPGLTEFRHGPNRDFEQKSERYPYGFLCTFTDKAALDAYAVHPTHQRAGGMLVASCRNGADGILVVDLEV”, the protein production entry is recorded as “not failed”. In the case of “MLYLFPLLAVVIWAGNAIVNKLSFGIIAPEAIAFYRWFFAMLILTPFMLKSVWKNRRRIIPLLPKLATLASLGMVLNQSLAYFAAATTTATNMALINSLVPMISLFLAVPLLKQRLSPLVLGGSVISLLGLVFMLSHGDIANLAIGVTEGDLLLLISAFVYALYGVLLKRWQLPISTWESVYIQGIIAVLMLTPLLFSAPSIAISSQATPLIVYAAFGASLIAPWAWINGINKLGAERTSIFFNLMPILAAIFAAIILNETLAIYHYLGGTMVILGVMLVQIKPKPKTTTIITCAE” it was “failed”; in that of “MLYNSYMLLTYQFKLNPTSEQVVILETWGELLRRHWNYALGERLDWLRRTRSLLDRCSLVSEPIGGIPDKPDYYTQASDLQQTKDLFPDYKNIYADCQQQNLMRLDKAWKRWLIPDKKGNRGGKPRFKKRGDISSFTFPRVNSPKAGAHLTGNILKLSKIGEIEVILHRPIPNGSEIKQATILSKSDGWYVSFSLEDKTVPELLPIDEIKTATGIDVGLEKFLTTAHGQSIEVPQYSRKTQSKLARQQRKLARKIHGSKNYQKQASRVARIHLHVARQRKEFHYQVAHWLVKSYDLIVFENLNIRGLARTRLAKSILDVAWGAFLQIMQAVAVRRGKHTRGVDPRGTSINCSGCGQRVEKTLAVRVHNCSCGLVIDRDWNSAINLLNYGSVGLPIPGCGGLGVSQPVKQQVSYVNLRCSRYTACS”, “failed”; in that of “MLYPNERKSSVHAIPYQDQLKQVQSAVDEFQKANGGLLPIQTKDMSTPLYQKYPIDFNRLAPRYIAEPPSTAFESGGDYQYVLVDVENDPTVKLIDLKMAEKIRDVKLRIQMYRQEHQYPPYKDVLSRDLFTLDEKKLGDGSSLTVTSPISGNSLPLMIDGDGEIYADYRTELASCLKKSKKTFKPGTEIQDMIWHETPFVPAFSVKYTVNDKQEPVFLENDMKKELEHHHHHH”, “not failed”.
